The values below come from the supplement of paper PMC7125110.

First the molecules themselves.
B1: glmS ribozyme (parent)
chain: AUAAAAGCGCCAGAACUACAGAAAUGUAGUUGACGAGGAGGAGGUUUAUCGAAUUUUCGGCGGAUGCCUCCAAA

Settings in all cases: with glucosamine-6-phosphate
The variants in data set [1] derive from B1. Put plainly: kcat; higher = faster cleavage; RNA array. An outline of the steps: (§1)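 On sequenced MiSeq chips, barcoded ribozyme variants were made in situ by E. coli RNA polymerase and followed at 37 °C through a hybridised Cy3 probe. Glucosamine-6-phosphate was flowed in at 40 μM to 10 mM in HEPES/KCl/Mg(OAc)2 buffer. Exponential fits to normalised per-tile medians gave kobs, and weighted Michaelis–Menten fits gave kcat and KM.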

The variants in data set [2] derive from B1. The data set can be described thus: KM; higher = weaker cofactor use; RNA array. Put shortly: as §1
In data set [3] the parent is B1. Put plainly: self-cleavage kobs at 640 uM GlcN6P; higher = faster cleavage; RNA array. An outline of the steps: as §1
In data set [4] the parent is B1. Put plainly: self-cleavage kobs at 2500 uM GlcN6P; higher = faster cleavage; RNA array. An outline of the steps:
as §1

Data set [5] covers variants of B1. Put plainly: self-cleavage kobs at 10000 uM GlcN6P; higher = faster cleavage; RNA array. An outline of the steps: as §1
Data set [6] covers variants of B1. The data set can be described thus: self-cleavage kobs at 40 uM GlcN6P; higher = faster cleavage; RNA array. An outline of the steps: as §1
Variants of B1 are the subject of data set [7]. The data set can be described thus: self-cleavage kobs at 160 uM GlcN6P; higher = faster cleavage; RNA array. An outline of the steps: as §1

± gives the standard error. For part of these data: Fewer inactive variants are shown than the library holds.

By kcat is commonly meant the maximal rate divided by the concentration of active sites. Broadly, the KM is the concentration of substrate that gives half-maximal velocity. As to G41A G66U, in data set [1], the kcat stood at 8e-05 ± 4.8e-06 s⁻¹. In addition, in data set [2], the KM stood at 2.19 ± 0.39 mM. Further, the “self-cleavage kobs at 640 uM GlcN6P” value in data set [3] came to 2.19e-05 ± 1e-05 s⁻¹. For the same variant, the “self-cleavage kobs at 2500 uM GlcN6P” value in data set [4] stood at 4.07e-05 ± 7.8e-06 s⁻¹. The “self-cleavage kobs at 10000 uM GlcN6P” value in data set [5] was found to be 6.65e-05 ± 8.4e-06 s⁻¹.
Take G32A C71U: the turnover number (kcat) in data set [1] was found to be 0.00395 ± 0.001 s⁻¹. The KM in data set [2] is 4.47 ± 1.5 mM. For the same variant, the “self-cleavage kobs at 40 uM GlcN6P” value in data set [6] was 3.68e-05 ± 5.2e-06 s⁻¹. For the same variant, the “self-cleavage kobs at 160 uM GlcN6P” value in data set [7] is 0.000159 ± 1.6e-05 s⁻¹. For the same variant, the “self-cleavage kobs at 640 uM GlcN6P” value in data set [3] was 0.000487 ± 4.1e-05 s⁻¹. Moreover, the “self-cleavage kobs at 2500 uM GlcN6P” value in data set [4] is 0.00122 ± 0.00011 s⁻¹. Also, the “self-cleavage kobs at 10000 uM GlcN6P” value in data set [5] worked out at 0.00326 ± 0.00033 s⁻¹.
As for G29U U49A, in data set [1], the catalytic constant (kcat) is below 1e-05 s⁻¹. The “self-cleavage kobs at 40 uM GlcN6P” value in data set [6] was below 1e-05 s⁻¹. In addition, in data set [7], the “self-cleavage kobs at 160 uM GlcN6P” value was below 1e-05 s⁻¹. The “self-cleavage kobs at 10000 uM GlcN6P” value in data set [5] is below 1e-05 s⁻¹.
As for C34G U46G C50U C67U, in data set [1], the kcat came out at 1.54e-05 ± 5.4e-06 s⁻¹.
With G37U G38C, the turnover number (kcat) in data set [1] is below 1e-05 s⁻¹. Besides, the “self-cleavage kobs at 40 uM GlcN6P” value in data set [6] is below 1e-05 s⁻¹. Further, in data set [7], the “self-cleavage kobs at 160 uM GlcN6P” value was below 1e-05 s⁻¹. In data set [4], the “self-cleavage kobs at 2500 uM GlcN6P” value was below 1e-05 s⁻¹.
For C16A U46G A48G C50U C67A, the kcat in data set [1] was 1.04e-05 ± 4.5e-06 s⁻¹.
Regarding C11A C34G G60U A64G, the kcat in data set [1] was below 1e-05 s⁻¹. Also, in data set [6], the “self-cleavage kobs at 40 uM GlcN6P” value is below 1e-05 s⁻¹. Also, the “self-cleavage kobs at 640 uM GlcN6P” value in data set [3] is below 1e-05 s⁻¹.
Take A33G U69A: the kcat in data set [1] amounted to 3.15e-05 ± 1.4e-05 s⁻¹. Moreover, in data set [7], the “self-cleavage kobs at 160 uM GlcN6P” value turned out to be 4.13e-05 ± 1.5e-05 s⁻¹.
Take U57A G60C: the kcat in data set [1] worked out at 2.43e-05 ± 9.7e-06 s⁻¹.
In the case of U46C U57C, in data set [1], the kcat came out at 9.95e-05 ± 2e-05 s⁻¹. The “self-cleavage kobs at 40 uM GlcN6P” value in data set [6] is below 1e-05 s⁻¹. Also, in data set [4], the “self-cleavage kobs at 2500 uM GlcN6P” value amounted to 4.88e-05 ± 2e-05 s⁻¹. The “self-cleavage kobs at 10000 uM GlcN6P” value in data set [5] was 7.09e-05 ± 1.8e-05 s⁻¹.
As to G29A A39U, the kcat in data set [1] came out at 0.0047 ± 0.0016 s⁻¹. In data set [2], the Michaelis-Menten constant (KM) was 3.44 ± 1.6 mM. In data set [6], the “self-cleavage kobs at 40 uM GlcN6P” value was found to be 0.000107 ± 1.9e-05 s⁻¹. In addition, the “self-cleavage kobs at 160 uM GlcN6P” value in data set [7] came to 0.000177 ± 3.4e-05 s⁻¹. Also, the “self-cleavage kobs at 640 uM GlcN6P” value in data set [3] worked out at 0.000731 ± 0.00013 s⁻¹. In data set [4], the “self-cleavage kobs at 2500 uM GlcN6P” value worked out at 0.00176 ± 0.0003 s⁻¹. Also, the “self-cleavage kobs at 10000 uM GlcN6P” value in data set [5] was 0.0037 ± 0.00049 s⁻¹.
Turning to C16A C50A U69C, in data set [1], the kcat was 3.42e-05 ± 1.5e-05 s⁻¹. Besides, the “self-cleavage kobs at 2500 uM GlcN6P” value in data set [4] was 5.24e-05 ± 2.3e-05 s⁻¹.
As to C11U U54A, the kcat in data set [1] was 0.00189 ± 0.00049 s⁻¹. The KM in data set [2] stood at 1.15 ± 0.47 mM. Moreover, the “self-cleavage kobs at 40 uM GlcN6P” value in data set [6] came to 8.46e-05 ± 1.3e-05 s⁻¹. Moreover, in data set [7], the “self-cleavage kobs at 160 uM GlcN6P” value was determined as 0.000164 ± 3.1e-05 s⁻¹. The “self-cleavage kobs at 640 uM GlcN6P” value in data set [3] was found to be 0.000876 ± 0.00016 s⁻¹. For the same variant, the “self-cleavage kobs at 2500 uM GlcN6P” value in data set [4] was found to be 0.00164 ± 0.00021 s⁻¹. The “self-cleavage kobs at 10000 uM GlcN6P” value in data set [5] was found to be 0.00149 ± 0.00021 s⁻¹.
Take A52U C68U: in data set [1], the kcat was determined as 0.000287 ± 4.1e-06 s⁻¹. Moreover, the KM in data set [2] was determined as 2.08 ± 0.062 mM. The “self-cleavage kobs at 160 uM GlcN6P” value in data set [7] came out at 1.96e-05 ± 8.9e-06 s⁻¹. Further, the “self-cleavage kobs at 640 uM GlcN6P” value in data set [3] came to 6.72e-05 ± 8.8e-06 s⁻¹. The “self-cleavage kobs at 2500 uM GlcN6P” value in data set [4] is 0.000158 ± 1.4e-05 s⁻¹. Moreover, in data set [5], the “self-cleavage kobs at 10000 uM GlcN6P” value worked out at 0.000236 ± 2.4e-05 s⁻¹.
Turning to A6C U47A, the kcat in data set [1] was determined as 0.0001 ± 5.6e-06 s⁻¹. Also, in data set [2], the KM came to 6.3 ± 0.77 mM. Besides, the “self-cleavage kobs at 10000 uM GlcN6P” value in data set [5] amounted to 6.15e-05 ± 1.4e-05 s⁻¹.
For G32A C61A, in data set [1], the catalytic constant (kcat) is below 1e-05 s⁻¹.
Take C58U C68A: the kcat in data set [1] is 3.52e-05 ± 1.5e-05 s⁻¹. The “self-cleavage kobs at 2500 uM GlcN6P” value in data set [4] was 5.08e-05 ± 2.1e-05 s⁻¹.
As to A39C U55A, the kcat in data set [1] came out at 0.00799 ± 0.0028 s⁻¹. Moreover, the KM in data set [2] stood at 2.79 ± 1.4 mM. The “self-cleavage kobs at 40 uM GlcN6P” value in data set [6] came to 0.000201 ± 4.2e-05 s⁻¹. Further, in data set [7], the “self-cleavage kobs at 160 uM GlcN6P” value was found to be 0.000429 ± 7.8e-05 s⁻¹. Besides, the “self-cleavage kobs at 640 uM GlcN6P” value in data set [3] came to 0.00143 ± 0.00023 s⁻¹. Moreover, the “self-cleavage kobs at 2500 uM GlcN6P” value in data set [4] is 0.00295 ± 0.00058 s⁻¹. In data set [5], the “self-cleavage kobs at 10000 uM GlcN6P” value was determined as 0.00755 ± 0.0012 s⁻¹.
C50U A53U: the kcat in data set [1] worked out at 5.88e-05 ± 7.9e-06 s⁻¹. The KM in data set [2] is 5.39 ± 2 mM. Moreover, the “self-cleavage kobs at 40 uM GlcN6P” value in data set [6] is below 1e-05 s⁻¹. Besides, in data set [5], the “self-cleavage kobs at 10000 uM GlcN6P” value was 3.82e-05 ± 8.6e-06 s⁻¹.
As for G38C G51C, the kcat in data set [1] was determined as 1.04e-05 ± 4.5e-06 s⁻¹.
